# Reference: PMC12507909, “The reticulocyte restriction: invasion ligand RBP1a of Plasmodium vivax targets human TfR1, prohibitin-2, and basigin” (Frontiers in Cellular and Infection Microbiology, 2025)
# B1: PvRBP1a_(158-650)LTID fusion protein (domain or fragment)
# chain: YNSIVDMSEKLKENDKYNLVFDMEIDFVDLQFFNLILELIPKDSQYHTYYEETLKQQVTEYTNSLKTLMDSCISEKDQMIILEYEINYAKRKSIETETLGDKETKLSAVSQAYAKHLESYKGVLKPKLNDIKNNAFSVLKDSYCKDNCGEYVQKYNTMRKNFISSSDQYKMEAYMYIPKSINDYTVLDKILSESNELGIDIQETVNSLKLLGEEISEVSHLYVINSTLIDDAAKKLESINEEDESAEIDLQKFEDNSKALANNYCIFQYIKTLNEPIKKAYESKVIKSNELLSTIIDTLGKSATALQESTFNQEECNKIKTEAEKVKDDAEDIYEKNEQIYYEIPESEDETIADKINDLQYLIDQMNEYKDEIVNNSEFISNRYKNIYENLKETYETELNDIGQLENDTSKVNFYLMQIRKINTEKTKIDESLQTVEKFYKGILDLKEKIYELKIEFEKSVTEINRLQDGESARDLHEEQIKEILDKMAKKVH
# notes: Synthetic gene optimised for E. coli, in pET-28a(+) between NcoI and XhoI; About 94 kDa; Details of expression and purification are in the Supplementary Data; also called PvRBP1a (158–650)-TurboID; PvRBP1a_(158-650)LITD
# Target: T1, transferrin receptor protein 1 (TfR1), recombinant extracellular domain Cys89-Phe760 (human, UniProt P02786 89-760)
# T1 construct: Human transferrin receptor protein 1 (TfR1/CD71), extracellular domain, Cys89-Phe760; also called CD71; the 89–760 domain of TfR1; source: bought: SinoBiological
# Assay: ELISA; Maxisorp plates coated with 5 μg/mL of each receptor candidate; serial dilutions of PvRBP1a_(158-650)LTID and LTID (48,000 pM to 187.5 pM and 4,000 pM to 1.28 pM) in blocking solution, 16 hours at 4°C; detected with a TurboID-specific antibody; one-site binding saturation model; triplicates
# Conditions: both partners purified
# T1 sequence (P02786 89-760): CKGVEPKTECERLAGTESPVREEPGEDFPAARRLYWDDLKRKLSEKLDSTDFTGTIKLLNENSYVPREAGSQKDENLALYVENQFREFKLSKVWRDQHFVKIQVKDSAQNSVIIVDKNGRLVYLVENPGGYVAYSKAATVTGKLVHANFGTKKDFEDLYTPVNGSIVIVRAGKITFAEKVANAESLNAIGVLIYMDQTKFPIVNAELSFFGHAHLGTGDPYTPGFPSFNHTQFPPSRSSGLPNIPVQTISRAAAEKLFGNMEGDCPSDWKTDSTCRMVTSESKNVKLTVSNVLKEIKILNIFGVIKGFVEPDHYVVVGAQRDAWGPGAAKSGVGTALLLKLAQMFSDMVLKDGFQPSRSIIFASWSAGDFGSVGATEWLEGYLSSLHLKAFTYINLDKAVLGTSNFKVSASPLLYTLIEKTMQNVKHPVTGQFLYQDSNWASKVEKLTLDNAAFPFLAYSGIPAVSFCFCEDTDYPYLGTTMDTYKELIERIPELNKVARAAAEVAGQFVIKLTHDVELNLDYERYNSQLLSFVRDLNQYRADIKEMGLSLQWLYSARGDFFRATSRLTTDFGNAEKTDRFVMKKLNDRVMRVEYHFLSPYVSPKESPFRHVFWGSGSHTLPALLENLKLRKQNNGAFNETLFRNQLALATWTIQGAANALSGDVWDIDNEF
binder,measurement,value
B1,Kd,1.15 nM
